Reference: publication PMC5341616 (Biochemistry and Biophysics Reports, 2017)

Experiments:
Ubiquitin = Ubiquitin (UniProt P0CG48 1-76); assay: NMR titration
[1] = target: PLIC-2 UBL domain UBLN2 1-107 (human, UniProt Q9UHD9 1-107); assay: NMR titration
Sequence of PLIC-2 UBL domain UBLN2 1-107 (Q9UHD9 1-107): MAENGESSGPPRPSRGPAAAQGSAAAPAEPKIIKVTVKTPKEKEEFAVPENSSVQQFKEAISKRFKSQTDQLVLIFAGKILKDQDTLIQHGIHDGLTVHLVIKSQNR

PEVRFQQQLEQLNAMGFLNREANLQALIATGGDINAAIERLLGSQPS (domain or fragment, human, UniProt Q9UHD9 578-624, looked up) [PLIC-2 UBA domain UBLN2 578-624]
Kd (Ubiquitin): 8.1 ± 1.5 µM | Kd [1]: 175 ± 25 µM
